According to US20160177307:
pKd: −log10 of the molar value.

Legend:
Experiment in all cases: filter
[1] = tested on: T1, VEGF-121 (Homo sapiens), P15692-9
T1 sequence: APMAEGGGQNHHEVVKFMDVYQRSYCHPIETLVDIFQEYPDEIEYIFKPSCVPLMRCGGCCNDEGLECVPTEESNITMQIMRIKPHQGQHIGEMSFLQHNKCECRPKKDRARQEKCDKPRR

[2] = tested on: T2, VEGF-165 (Homo sapiens), P15692-4
T2 sequence: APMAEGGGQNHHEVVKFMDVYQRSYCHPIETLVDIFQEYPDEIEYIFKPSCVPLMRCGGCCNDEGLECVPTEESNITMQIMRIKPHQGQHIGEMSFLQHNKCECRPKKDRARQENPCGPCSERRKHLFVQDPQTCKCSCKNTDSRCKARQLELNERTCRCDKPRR

[3] = molecular target: PDGF-BB (platelet-derived growth factor BB) (Homo sapiens) (UniProt P01127)
Chain of PDGF-BB (platelet-derived growth factor BB) (Homo sapiens) (P01127 82-190): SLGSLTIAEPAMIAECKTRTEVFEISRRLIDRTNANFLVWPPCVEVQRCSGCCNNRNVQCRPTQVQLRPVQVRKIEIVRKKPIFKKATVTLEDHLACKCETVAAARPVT

[4] = as 4867-31_192, PS 3' of 17 as printed, 3' inverted dT
[5] = Nap-dU, Bn-dU, MBn-dU, 2'-OMe, C3, 1 Heg between parts
[6] = PDGF-VEGF, no Heg linker, NapdU, BndU

AGCCGTTCAAGTGCTTGTAGGATTTAAAT [4867-31_53]
pKd ([1]; NapdU at P): 7.72
pKd ([2]; NapdU at P): 8.49

CCGTTCAAGTGCTTGTAGGATTTAAATGG [4867-31_417]
pKd ([1]; as 4867-31_192, PS 3' of 11, 3' inverted dT): 11.03

CCGTTCAAGTGCTTGTAGGATTTAAATGG [4867-31_420]
pKd ([1]; as 4867-31_192, PS 3' of 14, 3' inverted dT): 10.74

CCGTTCAAGTGCTTGTAGGATTTAAATGG [4867-31_421]
pKd ([1]; as 4867-31_192, PS 3' of 16, 3' inverted dT): 10.82

CCGTTCAAGTGCTTGTAGGATTTAAATGG [4867-31_422]
pKd ([1]; as 4867-31_192, PS 3' of 19, 3' inverted dT): 11.02

CCGTTCAAGTGCTTGTAGGATTTAAATGG [4867-31_423]
pKd ([1]; as 4867-31_192, PS 3' of 20, 3' inverted dT): 10.74

CCGTTCAAGTGCTTGTAGGATTTAAATGG [4867-31_424]
pKd ([1]; as 4867-31_192, PS 3' of 21, 3' inverted dT): 10.96

CCGTTCAAGTGCTTGTAGGATTTAAATGG [4867-31_425]
pKd ([1]; as 4867-31_192, PS 3' of 22 or 23 (printed P1-P2), 3' inverted dT): 10.80

CCGTTCAAGTGCTTGTAGGATTTAAATGG [4867-31_426]
pKd ([1]; as 4867-31_192, PS 3' of 24, 3' inverted dT): 10.92

CCGTTCAAGTGCTTGTAGGATTTAAATGG [4867-31_427]
pKd ([1]; as 4867-31_192, PS 3' of 25, 3' inverted dT): 11.09

CCGTTCAAGTGCTTGTAGGATTTAAATGG [4867-31_428]
pKd ([1]; as 4867-31_192, PS 3' of 26, 3' inverted dT): 11.08

CCGTTCAAGTGCTTGTAGGATTTAAATGG [4867-31_429]
pKd ([1]; as 4867-31_192, PS 3' of 27, 3' inverted dT): 10.92

CCGTTCAAGTGCTTGTAGGATTTAAATGG [4867-31_438]
pKd ([1]; as 4867-31_192, PS 3' of 6, 3' inverted dT): 10.89

CCGTTCAAGTGCTTGTAGGATTTAAATGG [4867-31_439]
pKd ([1]; as 4867-31_192, PS 3' of 9, 3' inverted dT): 10.62

CCGTTCAAGTGCTTGTAGGATTTAAATGG [4867-31_440]
pKd ([1]; as 4867-31_192, PS 3' of 12, 3' inverted dT): 11.00

CCGTTCAAGTGCTTGTAGGATTTAAATGG [4867-31_441]
pKd [1, 4]: 10.77

CCGTTCAAGTGCTTGTAGGATTTAAATGG [4867-31_442]
pKd [1, 4]: 10.82

CCGTTCAAGTGCTTGTAGGATTTAAATGG [4867-31_443]
pKd ([1]; as 4867-31_192, PS 3' of 18, 3' inverted dT): 11.07

CCGTTCAAGTGCTTGTAGGATTTAAATGG [4867-31_444]
pKd ([1]; as 4867-31_192 plus PS 3' of G28, 3'-idT, PS walk): 11.12

CCGTTCAAGTGCTTGTAGGATTTAAATGG [4867-31_445]
pKd ([1]; as 4867-31_192, PS 3' of 29, 3' inverted dT): 11.00

CCGTTCAAGTGCTTGTAGGATTTAAATGG [4867-31_475]
pKd ([1]; as 4867-31_192, 2'-OMe 1, PS 25): 10.59

CCGTTCAAGTGCTTGTAGGATTTAAATGG [4867-31_476]
pKd ([1]; as 4867-31_192, 2'-OMe 1, PS 26, printed 2.1-11): 10.68

CCGTTCAAGTGCTTGTAGGATTTAAATGG [4867-31_477]
pKd ([1]; as 4867-31_192, 2'-OMe 1, PS 25,26): 10.62

CCGTTCAAGTGCTTGTAGGATTTAAATGG [4867-31_478]
pKd ([1]; as 4867-31_192, PS 25,26): 10.72

CCGTTCAAGTGCTTGTAGGATTTAAATGG [4867-31_479]
pKd ([1]; as 4867-31_192, 2'-OMe 1, PS 24): 10.59

CCGTTCAAGTGCTTGTAGGATTTAAATGG [4867-31_480]
pKd ([1]; as 4867-31_192, 2'-OMe 1, PS 24,25): 10.55

CCGTTCAAGTGCTTGTAGGATTTAAATGG [4867-31_481]
pKd ([1]; as 4867-31_192 plus 2'-OMe C1 and PS 3' of A24,A25,A26, 3'-idT): 10.59

CCGTTCAAGTGCTTGTAGGATTTAAATGG [4867-31_482]
pKd ([1]; as 4867-31_192, PS 24,25,26): 10.62

CCGTTCAAGTGCTTGTAGGATTTAAATGG [4867-31_483]
pKd ([1]; as 4867-31_192, PS 24,25): 10.49

CCGTTCAAGTGCTTGTAGGATTTAAATGGCGACAGCATGTATGCACATCT [5169-4_93 (VEGF-6Heg-PDGF)]
pKd ([1]; P NapdU, superscript 1 2'-OMe, six Heg linkers): 10.28

CCGTTCAAGTGCTTGTAGGATTTAAATGGCGACAGCATGTATGCACATCT [5169-4_94]
pKd ([1]; VEGF-5Heg-PDGF, NapdU, 2'-OMe): 10.18

CCGTTCAAGTGCTTGTAGGATTTAAATGGCGACAGCATGTATGCACATCT [5169-4_95]
pKd ([3]; VEGF-4Heg-PDGF, NapdU, 2'-OMe): 11.92
pKd ([1]; VEGF-4Heg-PDGF, NapdU, 2'-OMe): 10.37

CCGTTCAAGTGCTTGTAGGATTTAAATGGCGACAGCATGTATGCACATCT [5169-4_96]
pKd ([3]; VEGF-3Heg-PDGF, NapdU, 2'-OMe): 11.35
pKd ([1]; VEGF-3Heg-PDGF, NapdU, 2'-OMe): 10.12

CCGTTCAAGTGCTTGTAGGATTTAAATGGCGACAGCATGTATGCACATCT [5169-4_97]
pKd ([3]; VEGF-2Heg-PDGF, NapdU, 2'-OMe): 11.43
pKd ([1]; VEGF-2Heg-PDGF, NapdU, 2'-OMe): 10.00

CCGTTCAAGTGCTTGTAGGATTTAAATGGCGACAGCATGTATGCACATCT [5169-4_98]
pKd ([3]; VEGF-1Heg-PDGF, NapdU, 2'-OMe): 11.28
pKd ([1]; VEGF-1Heg-PDGF, NapdU, 2'-OMe): 9.85

CCGTTCAAGTGCTTGTAGGATTTAAATGGTTACGTTACCGCGTTTATAGCG [4149-8_408]
pKd [3, 5]: 10.37
pKd [1, 5]: 10.36
pKd [2, 5]: 10.39

CCGTTCAAGTGCTTGTATGATTTAAATGGA [4867-31_153]
pKd ([1]; P=Nap-dU): 9.68

CCGTTCAAGTGCTTTAGATTTAAATGG [4867-31_184]
pKd ([1]; NapdU at P, C3 spacer 15,18, 2'-OMe 9,17): 10.08

CCGTTCAAGTGCTTTAGATTTAAATGG [4867-31_185]
pKd ([1]; NapdU at P, C3 spacer 15,18, 2'-OMe 6,9,12,17,28,29): 9.59

CCGTTCAAGTGCTTTAGATTTAAATGG [4867-31_186]
pKd ([1]; NapdU at P, C3 spacer 15,18, 2'-OMe 1,6,9,12,17,25,28,29): 8.80

CCGTTCAAGTGCTTTAGGATTTAAATGG [4867-31_187]
pKd ([1]; 2'-OMe G9,A17, C3 spacer at 15, all P are NapdU, target taken as VEGF-121): 10.49

CCGTTCAAGTGCTTTAGGATTTAAATGG [4867-31_188]
pKd ([1]; NapdU at P, C3 spacer 15, 2'-OMe 9,17,18,28,29 as printed): 10.42

CCGTTCAAGTGCTTTAGGATTTAAATGG [4867-31_189]
pKd ([1]; NapdU at P, C3 spacer 15, 2'-OMe 9,17,18,25,28,29 as printed): 9.05

CCGTTCAAGTGCTTTAGGATTTAAATGG [4867-31_190]
pKd ([1]; NapdU at P, C3 spacer 15, 2'-OMe 9,17,18,22,28,29 as printed): 10.05

CCGTTCAAGTGCTTTTAGGATTTAAATGGA [4867-31_150]
pKd ([1]; P=Nap-dU): 9.62

CCGTTGAAGTGCTTGTAGGATTTAAATGGA [4867-31_146]
pKd ([1]; P=Nap-dU): 8.22

CCGTTTAAGTGCTTGTAGGATTTAAATGGA [4867-31_147]
pKd ([1]; P=Nap-dU): 8.48

CCTCCATCAGCCGTTCAAGTGCTTGTAGGATTTAAATGGAATTGGAGGA [4867-15_24]
pKd ([1]; P=Nap-dU, C3 spacer at 1): 9.96

CCTCCATCAGCCGTTCAAGTGCTTGTAGGATTTAAATGGAATTGGAGGA [4867-15_25]
pKd ([1]; P=Nap-dU, C3 spacer at 2): 9.89

CCTCCATCAGCCGTTCAAGTGCTTGTAGGATTTAAATGGAATTGGAGGA [4867-15_26]
pKd ([1]; P=Nap-dU, C3 spacer at 3): 9.70

CGACAGCATGTATGCACATCTCCGTTCAAGTGCTTGTAGGATTTAAATGG [5169-4_99]
pKd ([3]; PDGF-6Heg-VEGF, NapdU, 2'-OMe): 11.68
pKd ([1]; PDGF-6Heg-VEGF, NapdU, 2'-OMe): 9.92

CGACAGCATGTATGCACATCTCCGTTCAAGTGCTTGTAGGATTTAAATGG [5169-4_100]
pKd ([3]; PDGF-5Heg-VEGF, NapdU, 2'-OMe): 11.82
pKd ([1]; PDGF-5Heg-VEGF, NapdU, 2'-OMe): 10.25

CGACAGCATGTATGCACATCTCCGTTCAAGTGCTTGTAGGATTTAAATGG [5169-4_101]
pKd ([1]; PDGF-4Heg-VEGF, NapdU, 2'-OMe): 9.89

CGACAGCATGTATGCACATCTCCGTTCAAGTGCTTGTAGGATTTAAATGG [5169-4_102]
pKd ([3]; PDGF-3Heg-VEGF, NapdU, 2'-OMe): 10.96
pKd ([1]; PDGF-3Heg-VEGF, NapdU, 2'-OMe): 9.85

CGACAGCATGTATGCACATCTCCGTTCAAGTGCTTGTAGGATTTAAATGG [5169-4_103]
pKd ([3]; PDGF-2Heg-VEGF, NapdU, 2'-OMe): 11.21
pKd ([1]; PDGF-2Heg-VEGF, NapdU, 2'-OMe): 9.92

CGACAGCATGTATGCACATCTCCGTTCAAGTGCTTGTAGGATTTAAATGG [5169-4_104]
pKd ([3]; PDGF-1Heg-VEGF, NapdU, 2'-OMe): 11.34
pKd ([1]; PDGF-1Heg-VEGF, NapdU, 2'-OMe): 9.55

GCCGTTCAAGTGCTTGTAGGATTTAAATGG [4867-31_144]
pKd ([1]; NapdU at P): 9.70

TTACGTTACACGCGTTTATAGCGCCGTTCAAGTGCTTTAGATTTAAATG [4149-8_317]
pKd [3, 6]: 10.20
pKd [1, 6]: 10.09

TTACGTTACCGCGTTTATAGCGCCGTTCAAGTGCTTGTAGGATTTAAATGG [4149-8_401]
pKd ([1]; PDGF_379-3Heg-VEGF_192, NapdU, BndU, MBndU, 2'-OMe, 5' amino linker): 10.57
